Assays:
[1] = target: human FAPα-His tag (Sino biological) (human) (UniProt Q12884); assay: competitive ELISA on coated human FAPα; competitor (detected): FAP-G52-Bio
[2] = target: human FAPα-His tag (Sino biological) (human) (UniProt Q12884); assay: competitive ELISA on coated human FAPα; competitor (detected): FAP-I38-Bio
[3] = target: human FAPα-His tag (Sino biological) (human) (UniProt Q12884); assay: ELISA, coated human FAPα-His
[4] = target: human FAPα-His tag (Sino biological) (human) (UniProt Q12884); assay: competitive ELISA on coated human FAPα; competitor (detected): FAPα (BMK)-Bio
[5] = target: human FAPα-His tag (Sino biological) (human) (UniProt Q12884); assay: SPR (Biacore T200), mAb captured on Protein A chip, human FAPα-His as analyte
[6] = target: human FAPα-His tag (Sino biological) (human) (UniProt Q12884); assay: competitive ELISA on coated human FAPα; competitor (detected): FAP-I30-Bio
[7] = target: human FAPα-His tag (Sino biological) (human) (UniProt Q12884); assay: competitive ELISA on coated human FAPα; biotinylated mAb alone, no competing Ab (row '0')
[8] = target: mouse FAPα-His protein (mouse) (UniProt P97321); assay: ELISA, coated mouse FAPα-His
[9] = target: human FAPα-His tag (Sino biological) (human) (UniProt Q12884); assay: competitive ELISA on coated human FAPα; competitor (detected): FAP-I37-Bio
[10] = target: human FAPα-His tag (Sino biological) (human) (UniProt Q12884); assay: competitive ELISA on coated human FAPα; competitor (detected): FAP-J40-Bio
[11] = target: human FAPα-His tag (Sino biological) (human) (UniProt Q12884); assay: competitive ELISA on coated human FAPα; competitor (detected): FAP-G14-Bio
[12] = target: human FAPα on CHO-K1-hFAPα cells (human) (UniProt Q12884); assay: flow cytometry on CHO-K1-hFAPα cells (MFI of PE); set-up: unit not given beside the values
[13] = target: human FAPα on CHO-K1-hFAPα cells (human) (UniProt Q12884); assay: flow cytometry on CHO-K1-hFAPα cells

Chain of human FAPα-His tag (Sino biological) (human) (Q12884 26-760 limits assumed): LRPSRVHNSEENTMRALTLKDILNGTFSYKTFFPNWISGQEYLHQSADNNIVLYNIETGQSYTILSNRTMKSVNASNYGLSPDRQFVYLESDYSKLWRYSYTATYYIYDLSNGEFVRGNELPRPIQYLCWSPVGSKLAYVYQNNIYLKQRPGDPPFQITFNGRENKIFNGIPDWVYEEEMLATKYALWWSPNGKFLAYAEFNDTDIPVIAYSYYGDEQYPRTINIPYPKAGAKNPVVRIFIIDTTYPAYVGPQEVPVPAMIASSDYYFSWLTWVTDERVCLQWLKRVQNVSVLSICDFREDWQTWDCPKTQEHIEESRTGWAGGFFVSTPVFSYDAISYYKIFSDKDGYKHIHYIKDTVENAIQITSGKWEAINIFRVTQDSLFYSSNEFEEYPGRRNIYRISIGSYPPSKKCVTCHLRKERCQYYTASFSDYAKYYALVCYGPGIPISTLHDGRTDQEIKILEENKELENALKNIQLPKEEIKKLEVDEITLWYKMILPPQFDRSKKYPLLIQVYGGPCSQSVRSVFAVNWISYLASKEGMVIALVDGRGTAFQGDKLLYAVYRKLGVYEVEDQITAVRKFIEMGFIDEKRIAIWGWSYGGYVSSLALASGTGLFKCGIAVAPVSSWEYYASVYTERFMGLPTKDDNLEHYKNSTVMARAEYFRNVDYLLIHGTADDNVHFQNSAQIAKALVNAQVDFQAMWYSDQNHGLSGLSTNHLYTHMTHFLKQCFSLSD
Chain of human FAPα on CHO-K1-hFAPα cells (human) (Q12884 whole entry): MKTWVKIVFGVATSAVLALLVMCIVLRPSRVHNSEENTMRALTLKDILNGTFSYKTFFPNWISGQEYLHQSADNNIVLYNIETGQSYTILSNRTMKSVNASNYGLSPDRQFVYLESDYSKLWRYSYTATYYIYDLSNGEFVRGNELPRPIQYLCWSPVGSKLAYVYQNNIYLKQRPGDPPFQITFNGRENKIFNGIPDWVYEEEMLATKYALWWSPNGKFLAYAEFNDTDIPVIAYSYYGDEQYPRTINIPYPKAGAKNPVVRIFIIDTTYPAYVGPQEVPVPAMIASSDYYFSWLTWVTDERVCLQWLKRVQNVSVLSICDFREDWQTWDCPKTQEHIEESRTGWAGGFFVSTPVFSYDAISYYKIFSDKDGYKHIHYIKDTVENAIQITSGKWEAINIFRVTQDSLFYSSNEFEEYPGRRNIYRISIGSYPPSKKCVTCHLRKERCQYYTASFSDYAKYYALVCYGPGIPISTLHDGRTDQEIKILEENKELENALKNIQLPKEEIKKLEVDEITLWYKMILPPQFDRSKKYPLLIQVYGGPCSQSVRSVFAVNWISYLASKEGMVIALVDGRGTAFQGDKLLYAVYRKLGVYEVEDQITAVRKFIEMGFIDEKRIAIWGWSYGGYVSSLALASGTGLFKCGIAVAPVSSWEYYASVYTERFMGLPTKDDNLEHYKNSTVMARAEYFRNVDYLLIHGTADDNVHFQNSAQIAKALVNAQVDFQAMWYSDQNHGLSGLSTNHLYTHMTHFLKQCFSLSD
Chain of mouse FAPα-His protein (mouse) (P97321 26-761 limits assumed): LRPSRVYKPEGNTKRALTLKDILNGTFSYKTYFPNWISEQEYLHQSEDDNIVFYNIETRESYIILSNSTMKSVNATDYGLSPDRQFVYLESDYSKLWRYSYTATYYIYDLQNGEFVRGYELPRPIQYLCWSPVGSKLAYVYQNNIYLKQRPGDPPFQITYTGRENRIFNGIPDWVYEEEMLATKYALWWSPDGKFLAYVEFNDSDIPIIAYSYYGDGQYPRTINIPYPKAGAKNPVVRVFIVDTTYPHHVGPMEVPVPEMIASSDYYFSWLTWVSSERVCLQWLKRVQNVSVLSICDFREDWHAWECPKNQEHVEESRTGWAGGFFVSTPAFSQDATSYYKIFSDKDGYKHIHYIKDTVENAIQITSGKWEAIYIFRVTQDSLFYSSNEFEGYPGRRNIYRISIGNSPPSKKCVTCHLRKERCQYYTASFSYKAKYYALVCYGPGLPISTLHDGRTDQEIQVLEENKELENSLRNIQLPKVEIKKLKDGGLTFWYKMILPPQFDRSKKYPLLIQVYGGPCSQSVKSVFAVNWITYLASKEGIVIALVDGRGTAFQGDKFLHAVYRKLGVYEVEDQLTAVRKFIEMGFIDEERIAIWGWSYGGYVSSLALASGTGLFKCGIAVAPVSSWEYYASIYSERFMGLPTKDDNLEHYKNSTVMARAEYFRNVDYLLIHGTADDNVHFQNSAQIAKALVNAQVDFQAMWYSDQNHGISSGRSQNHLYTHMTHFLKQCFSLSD

- OD 450 nm [1]: 0.169 OD 450 nm
- OD 450 nm [2]: 0.265 OD 450 nm
- EC50 [3]: 5.55 ng/mL
- OD 450 nm [4]: 0.171 OD 450 nm
- Kd [5]: 6.94 nM
- koff [5]: 0.000208 s⁻¹
- kon [5]: 30000 M⁻¹ s⁻¹
- OD 450 nm [6]: 0.155 OD 450 nm
- OD 450 nm [7]: 1.26 OD 450 nm
- EC50 [8]: 10.3 ng/mL
- OD 450 nm [9]: 0.23 OD 450 nm
- OD 450 nm [10]: 0.179 OD 450 nm
- OD 450 nm [11]: 0.135 OD 450 nm
- Cmax [12]: 424
- EC50 [13]: 0.043 ng/mL
Substance: FAP-4B9 clone from Roche (FAPα-BMK) (antibody)
